These results are taken from patent publication US9498540B2, “Cell proliferation inhibitors and conjugates thereof” (NOVARTIS AG, priority 2013, dated 2016).

The nature of data set [1]: Aggregation of immunoconjugates by analytical size exclusion chromatography. The format is physicochemical. To be noted: conjugate with trastuzumab (TBS); Superdex 200 5/150 GL run in PBS. Here is the method: Aggregation was measured by analytical size exclusion chromatography (Superdex 200 5/150 GL run in PBS). It was observed that the extent of aggregation depends on the Linker-Payload and the DAR. […] Table 4 also indicates whether the linking group for each conjugate is stable or cleavable.
For orientation: Size exclusion chromatography separates by hydrodynamic size, large species first.

The nature of data set [2]: Average drug loading (DAR, drug to antibody ratio) from LC/MS of reduced, deglycosylated conjugates. To be noted: conjugate with trastuzumab (TBS); average number of payload molecules per antibody. An excerpt:
The immunoconjugates prepared as described above were characterized by LC/MS, as illustrated in FIG. 1 for one immunoconjugate. […] The conjugates were characterized in terms of average drug loading for a sample (DAR, drug to antibody ratio) and aggregation (expressed in %).
The DAR value is extrapolated from LC-MS data for reduced and deglycosylated samples. […] HPLC separates the antibody into light and heavy chains, and separates the heavy chain (HC) and light chain (LC) according to the number of Linker-Payload groups per chain. Mass spectral data enables identification of the component species in the mixture, e.g., LC, LC+1, LC+2, HC, HC+1, HC+2, etc. From the average loading on the LC and HC chains, the average drug to antibody ratio (DAR) can be calculated for an ADC (see FIG. 1B). The DAR for a given conjugate sample represents the average number of drug (payload) molecules attached to a tetrameric antibody containing two light chains and two heavy chains.

In data set [1], `CC(C)(C)[C@H](c1nc(-c2cc(F)ccc2F)cn1Cc1ccccc1)N(CC[C@H](N)CF)C(=O)CO[C@@H]1O[C@H](C(=O)O)[C@@H](O)[C@H](O)[C@H]1O` [Compound 55] gave an Aggregation % of 11.5%. Moreover, the DAR in data set [2] is on record as 3.8.

For `C[C@H](O)C(=O)N(C[C@@H]1CNC[C@@H]1F)[C@@H](c1nc(-c2cc(F)ccc2F)cn1Cc1cccc(F)c1)C(C)(C)C` [Compound 14], the Aggregation % in data set [1] came out at 1.5%. The DAR in data set [2] turned out to be 2.8.

`O=C(NC[C@@H](O)CO)N(C[C@@H]1CNC[C@@H]1F)[C@@H](c1nc(-c2cc(F)ccc2F)cn1Cc1ccccc1)C1CCOCC1` [Compound 68] yielded an Aggregation % in data set [1] of 62.6%. For the same compound, the DAR in data set [2] stood at 4.6.

Regarding `CC(C)(C)[C@H](c1nc(-c2cc(F)ccc2F)nn1Cc1ccccc1)N(CCCN)C(=O)N1CCOCC1` [Compound 61], the Aggregation % in data set [1] was found to be 46.1%. In addition, the DAR in data set [2] worked out at 2.

The compound `C[C@H](O)C(=O)N(CC[C@H](N)CF)[C@@H](c1nc(-c2cc(F)ccc2F)cn1Cc1ccccc1)C(C)(C)C` [Compound 71] yielded an Aggregation % in data set [1] of 2.6%. Also, the DAR in data set [2] was found to be 2.9.

For `CC(C)(C)[C@H](c1nc(-c2cc(F)ccc2F)nn1Cc1ccccc1)N(CC[C@@H](N)CF)C(=O)N1CCSCC1` [Compound 43], the Aggregation % in data set [1] turned out to be 7.7%. Further, in data set [2], the DAR was 6.1.

Consider `NCCSCC(=O)N(C[C@@H]1CNC[C@@H]1F)[C@@H](c1nc(-c2cc(F)ccc2F)cn1Cc1ccccc1)C1CCOCC1` [Compound 18], for which the Aggregation % in data set [1] is recorded as 58.4%. In addition, the DAR in data set [2] turned out to be 3.

Compound `C[C@H](O)C(=O)N(CC[C@H](N)CF)[C@@H](c1nc(-c2cc(F)ccc2F)cn1CC1(C)COC1)C(C)(C)C` [Compound 34] came in with an Aggregation % in data set [1] of 50.5%. For the same compound, the DAR in data set [2] amounted to 4.4.

Regarding `C[C@@H](CN)NC(=O)N(C[C@@H]1CNC[C@@H]1F)[C@@H](c1nc(-c2cc(F)ccc2F)cn1Cc1ccccc1)C1CCOCC1` [Compound 19], the Aggregation % in data set [1] is listed as 74.6%. In addition, the DAR in data set [2] was found to be 4.7.

In data set [1], `CC(C)(C)[C@H](c1nc(-c2cc(F)ccc2F)cn1Cc1ccccc1)N(CC[C@H](N)CF)C(=O)CO` [Compound 2] had an Aggregation % of 43.8%. In addition, the DAR in data set [2] is 4.2.

Regarding `O=C(c1ccccn1)N(C[C@@H]1CN[C@H](CF)C1)[C@@H](c1nc(-c2cc(F)ccc2F)cn1Cc1ccccc1)C1CCOCC1` [Compound 65], the Aggregation % in data set [1] turned out to be 11.4%. Moreover, the DAR in data set [2] is on record as 3.2.

On to `C[C@H](O)C(=O)N(C[C@@H]1CNC[C@@H]1F)[C@@H](c1nc(-c2cc(F)ccc2F)cn1Cc1cccc(N)n1)C1CCOCC1` [Compound 66], for which the Aggregation % in data set [1] stood at 64.5%. The DAR in data set [2] was 3.6.

The compound `CC(C)(C)[C@H](c1nc(-c2cc(F)ccc2F)cn1Cc1ccccc1)N(CC[C@H](N)CF)C(=O)NO` [Compound 22] had an Aggregation % in data set [1] of 84.5%. For the same compound, the DAR in data set [2] turned out to be 6.

In data set [1], `C[C@H](O)C(=O)N(C[C@@H]1CNC[C@@H]1F)[C@@H](c1nc(-c2cc(F)ccc2F)cn1Cc1ccccc1)C1CCS(=O)(=O)CC1` [Compound 38] displayed an Aggregation % of 67.2%. In data set [2], the DAR was 5.8.

`C[C@H](O)C(=O)N(C[C@@H]1CNC[C@@H]1F)[C@H](c1nc(-c2cc(F)ccc2F)cn1Cc1ccccc1)C1CCS(=O)(=O)CC1` [Compound 47] had an Aggregation % in data set [1] of 65.2%. In addition, the DAR in data set [2] was 5.1.

On to `COC(=O)N(C[C@@H](F)CN)[C@@H](c1nc(-c2cc(F)ccc2F)cn1Cc1ccccc1)C(C)(C)C` [Compound 41], for which the Aggregation % in data set [1] stood at 23.8%. Moreover, in data set [2], the DAR was determined as 4.5.

On to `C[C@H](O)C(=O)N(CC[C@H](N)CF)[C@H](c1nc(-c2cc(F)ccc2F)cn1Cc1ccccc1)C1CCS(=O)(=O)CC1` [Compound 24], for which the Aggregation % in data set [1] was 54.2%. In data set [2], the DAR was found to be 1.2.

Take `CC(C)(C)OC(=O)N1C[C@@H](CN(C(=O)CI)[C@@H](c2nc(-c3cc(F)ccc3F)cn2Cc2cccc(F)c2)C(C)(C)C)[C@@H](F)C1` [Compound 31]: in data set [1], the Aggregation % came to 10.6%. In data set [2], the DAR is reported as 5.8.

In data set [1], `C[C@H](O)C(=O)N(CC[C@H](N)CF)[C@@H](c1nc(-c2cc(F)ccc2F)cn1Cc1ccccc1)C1CCOCC1` [Compound 46] showed an Aggregation % of 74.1%. In data set [2], the DAR is on record as 4.7.

As for `CC(C)(C)[C@H](c1nc(-c2cc(F)ccc2F)nn1Cc1ccccc1)N(CCCN)C(=O)CO` [Compound 50], the Aggregation % in data set [1] is listed as 40%. Further, the DAR in data set [2] is listed as 2.8.

Turning to `CC(C)(C)[C@H](c1nc(-c2cc(F)ccc2F)nn1Cc1ccccc1)N(CCCN)C(=O)c1cccnc1` [Compound 64], the Aggregation % in data set [1] was 49.3%. For the same compound, the DAR in data set [2] is on record as 2.9.

`CSCCC(=O)N(C[C@@H]1CNC[C@@H]1F)[C@@H](c1nc(-c2cc(F)ccc2F)cn1Cc1cccc(F)c1)C(C)(C)C` [Compound 9] came in with an Aggregation % in data set [1] of 84.9%. The DAR in data set [2] came to 6.

`C[C@H](O)C(=O)N(CC[C@@H](N)CF)[C@@H](c1nc(-c2cc(F)ccc2F)nn1Cc1ccccc1)C(C)(C)C` [Compound 8] showed an Aggregation % in data set [1] of 1.4%. In data set [2], the DAR amounted to 3.2.

In turn, `C[C@@H](CO)NC(=O)N(C[C@@H]1CNC[C@@H]1F)[C@@H](c1nc(-c2cc(F)ccc2F)cn1Cc1ccccc1)C1CCOCC1` [Compound 17] registered an Aggregation % in data set [1] of 55%. Also, the DAR in data set [2] is recorded as 5.8.

Compound `C[C@H](O)C(=O)N(CC[C@H](N)CF)[C@@H](c1nc(-c2cc(F)ccc2F)cn1Cc1ccccc1)C1CCS(=O)(=O)CC1` [Compound 37] had an Aggregation % in data set [1] of 68%. Besides, in data set [2], the DAR is reported as 5.6.

For `CC(C)(C)[C@@H](NC(=O)c1csc(CN)n1)c1nc(-c2cc(F)ccc2F)cn1Cc1ccccc1` [Compound 45], the Aggregation % in data set [1] came out at 22%. For the same compound, the DAR in data set [2] is on record as 4.8.

In data set [1], `C[C@H](O)C(=O)N(C[C@@H]1CNC[C@@H]1F)[C@@H](c1nc(-c2cc(F)ccc2F)cn1Cc1ccccc1)C(C)(C)C` [Compound 72] returned an Aggregation % of 45%. Besides, the DAR in data set [2] is 5.2.

On to `O=C(NCCO)N(C[C@@H]1CNC[C@@H]1F)[C@@H](c1nc(-c2cc(F)ccc2F)cn1Cc1ccccc1)C1CCOCC1` [Compound 58], for which the Aggregation % in data set [1] was determined as 59.4%. Moreover, the DAR in data set [2] is on record as 5.3.

Take `O=C([C@H]1CNCCO1)N(C[C@@H]1CNC[C@@H]1F)[C@@H](c1nc(-c2cc(F)ccc2F)cn1Cc1ccccc1)C1CCOCC1` [Compound 69]: the Aggregation % in data set [1] is on record as 4.9%. In data set [2], the DAR worked out at 6.

Turning to `COC(C)(C)[C@H](c1nc(-c2cc(Cl)ccc2F)cn1Cc1cccc(F)c1)N(C[C@@H]1CN[C@H](CF)C1)C(=O)[C@@H]1CCCO1` [Compound 13], the Aggregation % in data set [1] is reported as 0.7%. Further, the DAR in data set [2] was found to be 5.8.

The compound `CC(C)(C)[C@H](c1nc(-c2cc(F)ccc2F)cn1Cc1cccc(F)c1)N(C[C@@H]1CNC[C@@H]1F)C(=O)CCS` [Compound 67] gave an Aggregation % in data set [1] of 63.2%. Also, the DAR in data set [2] was 3.4.

For the compound `COC(C)(C)[C@H](c1nc(-c2cc(F)ccc2F)cn1Cc1cccc(F)c1)N(C[C@@H]1CNC[C@@H]1F)C(=O)[C@H](C)O` [Compound 54], in data set [1], the Aggregation % is 2.5%. For the same compound, in data set [2], the DAR was 3.1.

The compound `CNC(=O)N(C[C@@H]1CNC[C@@H]1F)[C@@H](c1nc(-c2cc(F)ccc2F)cn1Cc1cccc(F)c1)C(C)(C)C` [Compound 40] registered an Aggregation % in data set [1] of 9.3%. For the same compound, the DAR in data set [2] worked out at 4.

Turning to `CC(C)(C)[C@H](c1nc(-c2cc(F)ccc2F)nn1Cc1ccccc1)N(CCCN)C(=O)N1CCC[C@H]1CO` [Compound 28], the Aggregation % in data set [1] was 63.6%. For the same compound, in data set [2], the DAR was 3.6.
